Measured values from US20240277805A1.

Target: T1, myostatin (UniProt O14793)
T1 sequence (looked up): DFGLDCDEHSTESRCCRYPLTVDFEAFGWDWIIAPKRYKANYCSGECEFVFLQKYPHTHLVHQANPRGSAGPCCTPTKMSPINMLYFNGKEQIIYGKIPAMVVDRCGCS
Test: cell-based or functional assay

- Bioassay % relative potency; lot 0010036965, 5° C. upright, 0 months (% relative potency): 100
- Bioassay % relative potency; lot 0010036965, 5° C. upright, 0.5 months (% relative potency): 99
- Bioassay % relative potency; lot 0010036965, 5° C. upright, 1 month (% relative potency): 100
- Bioassay % relative potency; lot 0010036965, 5° C. upright, 3 months (% relative potency): 104
- Bioassay % relative potency; lot 0010036965, 5° C. upright, 6 months (% relative potency): 94
- Bioassay % relative potency; lot 0010036965, 25° C. upright, 0 months (% relative potency): 100
- Bioassay % relative potency; lot 0010036965, 25° C. upright, 0.25 months (% relative potency): 97
- Bioassay % relative potency; lot 0010036965, -20° C. upright, 0 months (% relative potency): 100
- Bioassay % relative potency; lot 0010036965, -20° C. upright, 1 month (% relative potency): 100
- Bioassay % relative potency; lot 0010036965, -20° C. upright, 3 months (% relative potency): 102
- Bioassay % relative potency; lot 0010036965, -20° C. upright, 6 months (% relative potency): 95
- Bioassay % relative potency; lot 0010036965, -20° C. upright, 9 months (% relative potency): 103
- Bioassay % relative potency; lot 0010036965, -20° C. upright, 12 months (% relative potency): 102
- Bioassay % relative potency; lot 0010036965, -20° C. upright, 18 months (% relative potency): 102
- Bioassay % relative potency; lot 0010036965, -20° C. upright, 24 months (% relative potency): 99
- Bioassay % relative potency; lot 0010036965, -20° C. upright, 30 months (% relative potency): 102
- Bioassay % relative potency; lot 0010036965, -70° C. upright, 0 months (% relative potency): 100
- Bioassay % relative potency; lot 0010036965, -70° C. upright, 12 months (% relative potency): 100
- Bioassay % relative potency; lot 0010036965, -70° C. upright, 24 months (% relative potency): 100
- Bioassay % relative potency; lot 0010036965, T = 0 of the 5 × freeze/thaw study (% relative potency): 100
- Bioassay % relative potency; lot 0010036965, after 5 × F/T (% relative potency): 100
- Bioassay % relative potency; lot EG-13-0150, 2-8° C. upright, 0 months (% relative potency): 99
- Bioassay % relative potency; lot EG-13-0150, 2-8° C. upright, 1 month (% relative potency): 93.2
- Bioassay % relative potency; lot EG-13-0150, 2-8° C. upright, 3 months (% relative potency): 99.7
- Bioassay % relative potency; lot EG-13-0150, 2-8° C. upright, 6 months (% relative potency): 114
- Bioassay % relative potency; lot EG-13-0150, 2-8° C. upright, 9 months (% relative potency): 103
- Bioassay % relative potency; lot EG-13-0150, 2-8° C. upright, 12 months (% relative potency): 106
- Bioassay % relative potency; lot EG-13-0150, 25° C. upright, 0 months (% relative potency): 99
- Bioassay % relative potency; lot EG-13-0150, 25° C. upright, 1 month (% relative potency): 86.9
- Bioassay % relative potency; lot EG-13-0150, -20° C. upright, 0 months (% relative potency): 99
- Bioassay % relative potency; lot EG-13-0150, -20° C. upright, 1 month (% relative potency): 93.2
- Bioassay % relative potency; lot EG-13-0150, -20° C. upright, 3 months (% relative potency): 94.4
- Bioassay % relative potency; lot EG-13-0150, -20° C. upright, 6 months (% relative potency): 110
- Bioassay % relative potency; lot EG-13-0150, -20° C. upright, 9 months (% relative potency): 99.3
- Bioassay % relative potency; lot EG-13-0150, -20° C. upright, 12 months (% relative potency): 105
- Bioassay % relative potency; lot EG-13-0150, T = 0 of the 5 × freeze/thaw study (% relative potency): 99
- Bioassay % relative potency; lot EG-13-0150, after 5 × F/T (% relative potency): 96
- Bioassay % relative potency; lot FG-13-0230, 2-8° C. upright, 0 months (% relative potency): 99
- Bioassay % relative potency; lot FG-13-0230, 2-8° C. upright, 1 month (% relative potency): 116
- Bioassay % relative potency; lot FG-13-0230, 2-8° C. upright, 3 months (% relative potency): 108
- Bioassay % relative potency; lot FG-13-0230, 2-8° C. upright, 6 months (% relative potency): 93
- Bioassay % relative potency; lot FG-13-0230, 2-8° C. upright, 9 months (% relative potency): 116
- Bioassay % relative potency; lot FG-13-0230, 2-8° C. upright, 12 months (% relative potency): 121
- Bioassay % relative potency; lot FG-13-0230, 25° C. upright, 0 months (% relative potency): 99
- Bioassay % relative potency; lot FG-13-0230, 25° C. upright, 1 month (% relative potency): 116
- Bioassay % relative potency; lot FG-13-0230, -20° C. upright, 0 months (% relative potency): 99
- Bioassay % relative potency; lot FG-13-0230, -20° C. upright, 1 month (% relative potency): 100
- Bioassay % relative potency; lot FG-13-0230, -20° C. upright, 3 months (% relative potency): 115
- Bioassay % relative potency; lot FG-13-0230, -20° C. upright, 6 months (% relative potency): 96
- Bioassay % relative potency; lot FG-13-0230, -20° C. upright, 9 months (% relative potency): 94
- Bioassay % relative potency; lot FG-13-0230, -20° C. upright, 12 months (% relative potency): 106
- Bioassay % relative potency; lot FG-13-0230, -70° C. upright, 0 months (% relative potency): 99
- Bioassay % relative potency; lot FG-13-0230, -70° C. upright, 1 month (% relative potency): 115
- Bioassay % relative potency; lot FG-13-0230, -70° C. upright, 3 months (% relative potency): 107
- Bioassay % relative potency; lot FG-14-0056, 2-8° C. upright, 0 months (% relative potency): 99
- Bioassay % relative potency; lot FG-14-0056, 2-8° C. upright, 1 month (% relative potency): 102
- Bioassay % relative potency; lot FG-14-0056, 25° C. upright, 0 months (% relative potency): 99
- Bioassay % relative potency; lot FG-14-0056, 25° C. upright, 1 month (% relative potency): 122
- Bioassay % relative potency; lot FG-14-0056, -20° C. by the title (condition line prints 2-8° C.), 0 months (% relative potency): 99
- Bioassay % relative potency; lot FG-14-0056, -20° C. by the title (condition line prints 2-8° C.), 1 month (% relative potency): 117
- Bioassay % relative potency; lot FG-14-0109, 2-8° C. inverted, 0 months (% relative potency): 98
- Bioassay % relative potency; lot FG-14-0109, 2-8° C. inverted, 3 months (% relative potency): 96
- Bioassay % relative potency; lot FG-14-0109, 2-8° C. inverted, 6 months (% relative potency): 112
- Bioassay % relative potency; lot FG-14-0109, 2-8° C. upright, 0 months (% relative potency): 98
- Bioassay % relative potency; lot FG-14-0109, 2-8° C. upright, 3 months (% relative potency): 92
- Bioassay % relative potency; lot FG-14-0109, 2-8° C. upright, 6 months (% relative potency): 107
- Bioassay % relative potency; lot FG-14-0109, 25° C. inverted, 0 months (% relative potency): 98
- Bioassay % relative potency; lot FG-14-0109, 25° C. inverted, 3 months (% relative potency): 94
- Bioassay % relative potency; lot FG-14-0109, 25° C. inverted, 6 months (% relative potency): 98
- Bioassay % relative potency; lot FG-14-0109, 25° C. upright, 0 months (% relative potency): 98
- Bioassay % relative potency; lot FG-14-0109, 25° C. upright, 3 months (% relative potency): 91
- Bioassay % relative potency; lot FG-14-0109, 25° C. upright, 6 months (% relative potency): 105
- Bioassay % relative potency; lot FG-14-0109, -20° C. upright, 0 months (% relative potency): 98
- Bioassay % relative potency; lot FG-14-0109, -20° C. upright, 3 months (% relative potency): 96
- Bioassay % relative potency; lot FG-14-0109, -20° C. upright, 6 months (% relative potency): 101
- Cell Based Bioassay, Relative Potency; DP lot 0010036965, 5° C., 54 months (% relative potency): 87
- Cell Based Bioassay, Relative Potency; DP lot 0010036965, -20° C., 54 months (% relative potency): 99
- Cell Based Bioassay, Relative Potency; DP lot 0010036965, -70° C., 54 months (% relative potency): 111
- Cell Based Bioassay, Relative Potency; DS lot 0010035106, 5° C., 54 months (% relative potency): 101
- Cell Based Bioassay, Relative Potency; DS lot 0010035106, -70° C., 54 months (% relative potency): 99
B1: STM 434 (svActRIIB-Fc (E28W, S44T) polypeptide without signal sequence) (Fc fusion)
chain: ETRWCIYYNANWELERTNQTGLERCEGEQDKRLHCYASWRNSSGTIELVKKGCWLDDFNCYDRQECVATEENPQVYFCCCEGNFCNERFTHLPEAGGPEVTYEPPPTAPTGGGGSVECPPCPAPPVAGPSVFLFPPKPKDTLMISRTPEVTCVVVDVSHEDPEVQFNWYVDGVEVHNAKTKPREEQFNSTFRVVSVLTVVHQDWLNGKEYKCKVSNKGLPAPIEKTISKTKGQPREPQVYTLPPSREEMTKNQVSLTCLVKGFYPSDIAVEWESNGQPENNYKTTPPMLDSDGSFFLYSKLTVDKSRWQQGNVFSCSVMHEALHNHYTQKSLSLSPGK
